Data on 15 sequences can be found in the DeepSol protein solubility set.

This data set is described as follows: soluble on expression in E. coli; label from the status in PepcDB or PDB records.
On to “MSVTVFIPGDSAALAVGANRVAEAIAREAASRNLDVQIVRNGSRGMLWLEVLVEVRTEHGRIAYGPVKAADVTSLFDADFLDGGDHRLCLGPTKDIPFLKNQTRLTFARCGVTDPLSLEDYRNYQGMKGLEKAVTMEPLAIVAQVTESGLRGRGGAGFPTGIKWKTVADARADQKYIVCNADEGDSGTFADRMIMEGDPFVLIEGMAIAGLAVGATKGFIYTRSEYPYAIKVMEKAIEIARREGILGSSVLGSGRAFDMEVRMGAGAYVCGEETSLLNSLEGKRGTVRAKPPLPALQGLFGKPTVVNNVISLASIPVIMDRGAAFYRDFGVGRSHGTIPIQLAGNIRYGGLYETAFGLTLGQLVNDIGGGTITGRPVKAVQVGGPLGAYFPVSLFDTIFDYEAFTAAGGLIGHAGIVVFDDTADMLHQARFALEFCAVESCGKCTPCRIGSTRGVETVDKIALGIEREKNTALLEDLCETMKFGSLCALGGFTPYPVMSALRHFPQDFAPIPRVEAAEAAALEHHHHHH”, for which the “soluble on expression in E. coli” value was “not soluble”.
Consider “MEHPEGEDPTLLPPALAARALGVSPATLRRYAALWERLVGPLPRDPRGGRLWPKEALARLRAAREAHLREGLPLEEALARVQGDFPALALPSEGEALALLRALAERLERVEGELRALREENARLREALKALEPPRRRPWWRFWGH”, for which the “soluble on expression in E. coli” value was “soluble”.
With “MGSDKIHHHHHHMSRFVVITAAQDFQRKVQSAVRGALHGTVQILPPSVMLGGPQELFGRLSGEPPEVLVLGPGLPGDEALKLATVFDLQYPEISLVLVEDMASEQVINAMRAGIRDIVSPSAEVSELRILLERACLASAGRRRGLVAAAGPERPAGRVIAVMSPKGGVGKTTVATNLAIGLGKIAPMGVVIVDLDVQFGDVATGLQLEPEHTLRDAVGGAAFQDSMVLKAFLTVHPSGIYALCAPNTPGEADHISGEAVSHLLNQMAAEFQYVVVDTTPGLGEHVLATLEQATDAVWVCGMDIPSIRGLHTSFEVLRELQLLPQGRHVVLNFADRRSGLTVQDVEATIGVPVDTVVPRSRAVPFSTNKGVPLLQDSSHDGAARAFAKLVERFDPKRATQPQKKVHRRMVIS”, the “soluble on expression in E. coli” value was “not soluble”.
With “MGSDKIHHHHHHMPRSARIDIPNLLQHVIVRGIERRDIFLSDDDRWDFRNRLQKLLLEMDVDCLAWSLMSNHFHLLLRPTRTPLAPFMRRLLTGYAVSFNLRHNRSGHLFQNRYKSIVCDEDSYLLELVRYIHLNPLRAGIVADLGALDTFPWSGHAMLMGKIVLEGQGINEVLRYFGPGVSASRRTYREFMADGVLQGERPDLVGKRSGASGGGCPASDRRILGDENFVEQLKTEECLHQQLRRPMSIESIVATIADQYGVAPKAIASKSRLPRTLDARAVVCYTAVEEGHTGAEVGRVLGMTRSGVAIARRRGEEVLARIESTAEFQHDTRLDSTN”, the “soluble on expression in E. coli” value is “not soluble”.
Take “MESTLSLQANLYPRLTPAGAFYAVSSDAPSAGKTLLHSLLKADADEMVSSEKLLTWADTADIDTALNLLYRLQKLEFLYGDENGHSDGINLSDEQLPLLMEQLSGSGKALLVDRNGLYLANANFHHEAAEELGLLAAEVAQMEKKYRLLIKNNLYINNNAWGVCDPSGQSELTFFPLYIGSTKFILVIGGIPDLGKEAFVTLVRILYRRYSNRV”: the “soluble on expression in E. coli” value is given as “not soluble”.
The result for “MIKVLLLDVDGTLLSFETHKVSQSSIDALKKVHDSGIKIVIATGRAASDLHEIDAVPYDGVIALNGAECVLRDGSVIRKVAIPAQDFRKSMELAREFDFAVALELNEGVFVNRLTPTVEQIAGIVEHPVPPVVDIEEMFERKECCQLCFYFDEEAEQKVMPLLSGLSATRWHPLFADVNVAGTSKATGLSLFADYYRVKVSEIMACGDGGNDIPMLKAAGIGVAMGNASEKVQSVADFVTDTVDNSGLYKALKHFGVI” reads “not soluble”; that for “MGHHHHHHSHMDKQSSAGGVKRSVPCDSNEANEMMPETPTGDSDPQPAPKKMKTSESSTILVVRYRRNFKRTSPEELLNDHARENRINPLQMEEEEFMEIMVEIPAK”, “not soluble”.
As to “MSLEHFDDKSQLKRNGFYFSYNVDKENIEHWISAILFQVLKDKEDIVILSLGVDTLVGDSLGPLVGSILKRNGIPNVYGTLDRTVNASNIIKILDEIHERFKNPYILVVDAAVTAENNINDIVLRNGGFTPGFGVYRQLPTVGDFSLVGVVNKEDEREHNLIELLKKCRFDEVLKLARIISKILVLTFARMNKGDKEGHHHHHH”, the “soluble on expression in E. coli” value was “not soluble”.
In the case of “MGSDKIHHHHHHMAQIISINDNQRLQLEPLEVPSRLLLGPGPSNAHPSVLQAMNVSPVGHLDPAFLALMDEIQSLLRYVWQTENPLTIAVSGTGTAAMEATIANAVEPGDVVLIGVAGYFGNRLVDMAGRYGADVRTISKPWGEVFSLEELRTALETHRPAILALVHAETSTGARQPLEGVGELCREFGTLLLVDTVTSLGGVPIFLDAWGVDLAYSCSQKGLGCSPGASPFTMSSRAIEKLQRRRTKVANWYLDMNLLGKYWGSERVYHHTAPINLYYALREALRLIAQEGLANCWQRHQKNVEYLWERLEDIGLSLHVEKEYRLPTLTTVCIPDGVDGKAVARRLLNEHNIEVGGGLGELAGKVWRVGLMGFNSRKESVDQLIPALEQVLR”, the “soluble on expression in E. coli” value is “soluble”.
With “MGQRKYGGPPPGWDSTPPERGCEIFIGKLPRDLFEDELIPLCEKIGKIYEMRLMMDFNGNNRGYAFVTFSNKQEAKNAIKQLNNYEIRTGRLLGVCASVDNCRLFVGGIPKTKKREEILSEMKKVTEGVVDVIVYPSAADKTKNRGFAFVEYESHRAAAMARRRLLPGRIQLWGHPIAVDWAEPEVEVDEDTMSSVKILYVRNLMLSTSEEMIEKEFNSIKPGAVERVKKIRDYAFVHFSNREDAVEAMKALNGKVLDGSPIEVTLAKPVDKDSYVRYTRGTGGRNTMLQGEYTYPLSHVYDTTTTYLGAPVFYTPQAYAAIPSLHFPATKGHLSNRALIRTPSVRGNTS”, the “soluble on expression in E. coli” value is on record as “soluble”.
As for “MPHSCSGNYNSCAYIYGVHICKVLLILRAQNVYRNGGFMGEQLIISISREYGSGGHEIARKLADRLELAFYDRCMLDEIAEQMNADVSDFHKYDEKPGNRLLSRRVGNHTNSYEEIIAQFQFDYIRKKAESGESFVVVGRCSENVLKDYDCLISVFVTGDKEHKIQRVMEHFDLSESEAYTKMRRHDRTRKQYHNRYSEGKWGDATYYDMCINSSPLGIEKTVNVLENYVKERTGNQEL”, the “soluble on expression in E. coli” value is “not soluble”.
On to “IKTTKALQLNDEQQVAVDQITQAVDQAATTTFLLEGVTGSGKTEVYLQSMAAALVQGKTALMLVPEISLTPQMVQRVKGRFGKAVAVLHSGLSSGEKYDEWRRIQRGEAQVVVGARSAVFAPLKNLGLIVMDEEHESTYKQDDAPRYHARQVALWRSRYHNCPVVLGSATPSLETRARAEKG”, for which the “soluble on expression in E. coli” value is “not soluble”.
For the sequence “MKALERTVTVKGLAEKEVKANIAIWPINFTEVDNNLPKLYETVQLKTDKVVAFLKERGFSDSEITISLPSIEDRQAQGYVDPNVKYRYSAKVNLSVYTSQIDLMLSSRKQMINLVKEGIAIASQDYENRTEFLFTQLNDVKPTMVQEATQNAREVAEKFAKDSESRLGKIKSASQGQFTISDRDSSTPYIKQIRIVSTLTYYLNDLEHHHHHH”, the “soluble on expression in E. coli” value was “not soluble”.
Next, “MTIAQEPTALNFECETGNYHTFCPISCVAWLYQKIEDSFFLVIGTKTCGYFLQNAMGVMIFAEPRYAMAELEEGDISAQLNDYAELKRLCEQIKRDRNPSVIVWIGTCTTEIIKMDLEGLAPKLEGEIGIPIVVARANGLDYAFTQGEDTVLAAMAHRCPDKAPVAEAEKNLEHHHHHH”: “soluble”; “MTRTYAMVGTPCQITAATLMDRYTEDFPVELKLGLFCMENFSYTYLKKLAEEEGIDLADVSELRIEKGRLWFHLNDGSKVSVSLERARAAMRKNCSVCMDFTSEQSDISIGSVGSPEGWSTIIIRTERGHELIEKARKAGYIETKPLTERGIRILEKLASGKKEDNLQEIKRRESVARPVLYWRVMPDEEYLEEVTDYQFDDLRSDVIDVGACVLCGACVASCPEDIVSIKDRKPEVEGTCPEGCNACYVACPRTYVPDSIIGHDSAITPLGEYIEILSARAPMFRGQDGGVVTALLTYALREGIIDGALVVDRDQERPWKPLPVLAEEPQDIVKAAGTKYSACPLLKVLKELEHHHHHH”: “soluble”.
